Article PMC5562876, “The integration of Gβ and MAPK signaling cascade in zygote development” (Scientific Reports, 2017)
Residue numbers refer to the chain shown, from its start. Numbers in names are those of the source.

B1: AGB1 (purified, pull-down) (natural protein, Arabidopsis thaliana, UniProt P49177 1-377, looked up)
chain: MSVSELKERHAVATETVNNLRDQLRQRRLQLLDTDVARYSAAQGRTRVSFGATDLVCCRTLQGHTGKVYSLDWTPERNRIVSASQDGRLIVWNALTSQKTHAIKLPCAWVMTCAFSPNGQSVACGGLDSVCSIFSLSSTADKDGTVPVSRMLTGHRGYVSCCQYVPNEDAHLITSSGDQTCILWDVTTGLKTSVFGGEFQSGHTADVLSVSISGSNPNWFISGSCDSTARLWDTRAASRAVRTFHGHEGDVNTVKFFPDGYRFGTGSDDGTCRLYDIRTGHQLQVYQPHGDGENGPVTSIAFSVSGRLLFAGYASNNTCYVWDTLLGEVVLDLGLQQDSHRNRISCLGLSADGSALCTGSWDSNLKIWAFGGHRRVI
notes: AGB1, G protein beta subunit, Arabidopsis thaliana, At4G34460; source: E. coli, purified (glutathione agarose beads)
B2: MKK5 (purified, pull-down) (natural protein, Arabidopsis thaliana, UniProt Q8RXG3 1-348, looked up)
chain: MKPIQSPSGVASPMKNRLRKRPDLSLPLPHRDVALAVPLPLPPPSSSSSAPASSSAISTNISAAKSLSELERVNRIGSGAGGTVYKVIHTPTSRPFALKVIYGNHEDTVRRQICREIEILRSVDHPNVVKCHDMFDHNGEIQVLLEFMDQGSLEGAHIWQEQELADLSRQILSGLAYLHRRHIVHRDIKPSNLLINSAKNVKIADFGVSRILAQTMDPCNSSVGTIAYMSPERINTDLNHGRYDGYAGDVWSLGVSILEFYLGRFPFAVSRQGDWASLMCAICMSQPPEAPATASQEFRHFVSCCLQSDPPKRWSAQQLLQHPFILKATGGPNLRQMLPPPRPLPSAS
notes: MKK5, MAP kinase kinase 5, Arabidopsis thaliana, At3G21220; source: E. coli, purified (glutathione agarose beads)
B3: GPA1 (purified, pull-down) (natural protein, Arabidopsis thaliana, UniProt P18064 1-383, looked up)
chain: MGLLCSRSRHHTEDTDENTQAAEIERRIEQEAKAEKHIRKLLLLGAGESGKSTIFKQIKLLFQTGFDEGELKSYVPVIHANVYQTIKLLHDGTKEFAQNETDSAKYMLSSESIAIGEKLSEIGGRLDYPRLTKDIAEGIETLWKDPAIQETCARGNELQVPDCTKYLMENLKRLSDINYIPTKEDVLYARVRTTGVVEIQFSPVGENKKSGEVYRLFDVGGQRNERRKWIHLFEGVTAVIFCAAISEYDQTLFEDEQKNRMMETKELFDWVLKQPCFEKTSFMLFLNKFDIFEKKVLDVPLNVCEWFRDYQPVSSGKQEIEHAYEFVKKKFEELYYQNTAPDRVDRVFKIYRTTALDQKLVKKTFKLVDETLRRRNLLEAGLL
notes: GPA1, G protein alpha subunit, Arabidopsis thaliana, At2G26300; fusion protein; also called WtGPA1; source: E. coli, purified (glutathione agarose beads)
B4: GPA1^Q222L (purified, pull-down) (natural protein, Arabidopsis thaliana, UniProt P18064 1-383, looked up)
chain: B3 chain with Q222L
notes: GPA1, G protein alpha subunit, Arabidopsis thaliana, At2G26300, with Q222L; fusion protein; source: E. coli, purified (glutathione agarose beads)
B5: AGG1 (purified, pull-down) (natural protein, Arabidopsis thaliana, UniProt Q9FDX9 1-98, looked up)
chain: MREETVVYEQEESVSHGGGKHRILAELARVEQEVAFLEKELKEVENTDIVSTVCEELLSVIEKGPDPLLPLTNGPLNLGWDRWFEGPNGGEGCRCLIL
notes: AGG1, G protein gamma subunit 1, Arabidopsis thaliana, At3G63420; fusion protein; source: E. coli, purified (glutathione agarose beads)
B6: MKK4 (purified, pull-down) (natural protein, Arabidopsis thaliana, UniProt O80397 1-366, looked up)
chain: MRPIQSPPGVSVPVKSRPRRRPDLTLPLPQRDVSLAVPLPLPPTSGGSGGSSGSAPSSGGSASSTNTNSSIEAKNYSDLVRGNRIGSGAGGTVYKVIHRPSSRLYALKVIYGNHEETVRRQICREIEILRDVNHPNVVKCHEMFDQNGEIQVLLEFMDKGSLEGAHVWKEQQLADLSRQILSGLAYLHSRHIVHRDIKPSNLLINSAKNVKIADFGVSRILAQTMDPCNSSVGTIAYMSPERINTDLNQGKYDGYAGDIWSLGVSILEFYLGRFPFPVSRQGDWASLMCAICMSQPPEAPATASPEFRHFISCCLQREPGKRRSAMQLLQHPFILRASPSQNRSPQNLHQLLPPPRPLSSSSSPTT
notes: MKK4, MAP kinase kinase 4, Arabidopsis thaliana, At1G51660; source: E. coli, purified (glutathione agarose beads)
B7: AGG2 (purified, pull-down) (natural protein, Arabidopsis thaliana, UniProt Q93V47 1-100, looked up)
chain: MEAGSSNSSGQLSGRVVDTRGKHRIQAELKRLEQEARFLEEELEQLEKMDNASASCKEFLDSVDSKPDPLLPETTGPVNATWDQWFEGPKEAKRCGCSIL
notes: AGG2, G protein gamma subunit 2, Arabidopsis thaliana, At3G22942; fusion protein; source: E. coli, purified (glutathione agarose beads)

Experiments:
Experiment in all cases: pull-down; purified fusion proteins from E. coli incubated with glutathione agarose beads, 25 mM Tris-HCl pH 7.5, 100 mM NaCl, 1 mM DTT, 1 hr; seven washes with 0.1% Triton X-100; eluted with 15 mM GSH; immunoblot
Settings in all cases: both partners purified
[1] = molecular target: T1, MPK6 (purified, pull-down) (Arabidopsis thaliana, UniProt Q39026 1-395)
T1 construct: MPK6, MAP kinase 6, Arabidopsis thaliana, At2G43790; fusion protein; source: E. coli, purified (glutathione agarose beads)

[2] = molecular target: B1
[3] = molecular target: B6
[4] = molecular target: B2

T1 sequence (Q39026 whole entry, the tested form may be a part): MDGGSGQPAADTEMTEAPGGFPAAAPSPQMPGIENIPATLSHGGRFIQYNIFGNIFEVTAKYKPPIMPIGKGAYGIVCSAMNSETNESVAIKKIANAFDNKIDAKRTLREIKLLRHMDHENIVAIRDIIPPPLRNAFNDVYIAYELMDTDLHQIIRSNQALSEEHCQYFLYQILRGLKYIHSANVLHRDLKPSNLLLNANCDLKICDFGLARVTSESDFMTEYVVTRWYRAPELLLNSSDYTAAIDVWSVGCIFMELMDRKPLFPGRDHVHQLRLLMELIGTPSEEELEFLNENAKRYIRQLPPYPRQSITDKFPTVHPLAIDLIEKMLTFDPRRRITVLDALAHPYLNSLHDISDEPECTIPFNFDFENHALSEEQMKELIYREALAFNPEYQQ

Row | binding result [1] | binding result [2] | binding result [3] | binding result [4] | Binder
1 | binds |  |  |  | B1
2 |  | binds |  |  | B2
3 | binds |  |  |  | B3
4 | binds |  |  |  | B4
5 | binds |  | binds | binds | B5
6 |  | binds |  |  | B6
7 | binds |  | binds | binds | B7
